Measurements taken from US20240368566A1, “PYK2-DERIVED PEPTIDES FOR INHIBITING INVADOPODIA-MEDIATED CANCER METASTASIS” (BAR-ILAN UNIVERSITY, priority 2023, published 2024).
“Also recorded” adds a separate entry of the source. Each block holds one molecule with its values, some of them ahead of it. Where no end group is shown, it is not given here.

What was measured:
MDA-MB-231 cells [1] = experiment: Invadopodium precursor formation assay; type: cell-based, human; conditions: at higher peptide concentrations
Procedure: The invadopodium precursor formation assay was performed as described in Genna et al., 2018 (supra). Briefly, gelatin was conjugated to Alexa 405 dye (Thermo Fisher Scientific). MatTek dishes were treated with 1 N HCl and coated with 50 μg/ml poly-L-lysine. A 0.2% gelatin solution was prepared in PBS, and a 1:20 mixture of Alexa 405-labeled gelatin/unlabeled gelatin was warmed to 37° C. before addition to the poly-L-lysine coated plates. Gelatin was cross-linked with 0.01% glutaraldehyde followed by quenching with 5 mg/ml sodium borohydride. 125,000 MDA-MB-231 cells were plated on Alexa 405-labeled gelatin plates in the presence of 0.1, 1, or 5 μM of Pyk2-PRR peptides or scrambled control for 4 h. At the end of incubation, cells were fixed in 3.7% paraformaldehyde, permeabilized with 0.1% Triton X-100, blocked with 1% FBS, 1% BSA in PBS, and labeled with anti-Tks5 and anti-cortactin. Images were acquired using an inverted fluorescent microscope (Leica AF6000; 63×, NA 1.4, oil objective, Leica LAS AF acquisition software) (Wetzlar, Germany) equipped with an ORCA-Flash 4.0 V2 digital CMOS camera (Hamamatsu Photonics, Shizuoka, Japan).

MDA-MB-231 cells [2] = experiment: 2D single-cell random migration assay; type: cell-based, human; conditions: highest (higher) peptide concentration; 12 hours; compared to control peptide; data not shown
Procedure: The 2D single-cell random migration assay was performed as previously described in Genna et al. Pyk2 and FAK differentially regulate invadopodia formation and function in breast cancer cells. J Cell Biol 2018; 217: 375-395. In brief, 6-well microtiter plates were coated with 10 μg/ml fibronectin and blocked with 1% denatured BSA. Peptide pre-treated cells were plated at 20,000 cells/well in DMEM/10% FBS containing peptides and allowed to adhere for 12-16 h. Plates were placed in a 37° C. heated chamber, and images were collected using the IncuCyte® Zoom platform (Essen Bioscience, Ann Arbor, MI, USA; 20×, NA 0.60, air objective). Phase images were collected every one hour for a total of 12 h using the IncuCyte® acquisition software. Trajectory plots, accumulated distance (total cell path length), Euclidean distance (the shortest distance between the starting point and endpoint of migration), and velocity were calculated using the chemotaxis and migration tool (ibidi GMBH, Grafelfing, Germany).

cortactin SH3 domain = molecular target: T1, cortactin SH3 domain (Mus musculus, UniProt Q60598); experiment: NMR affinity determination, binding of peptides to purified cortactin-SH3; conditions: for loss of affinity: mutant versus Pyk2-PRR2
T1 construct: nucleotides1468-1641); 6xHis (N, cleaved yes); made in house; host or cells: E. coli BL21 (DE3)
Procedure: The DNA sequence encoding the SH3 domain of the mouse cortactin SH3 domain (GenBank ID U03184; nucleotides1468-1641) was sub-cloned into a pET-28a plasmid (Novagen, Merck) in frame with the cleavable N-terminal 6×His tag. Isotopically labeled cortactin-SH3 for heteronuclear NMR experiments was expressed in transformed E. coli BL21 cells (DE3) grown in the presence of kanamycin (50 mg/1) and chloramphenicol (34 mg/1) at 37° C. in M9 minimal medium. For ^15N (^13C) labeling the medium contained 1 g/L of ^15NH4Cl (4 g/L ^13C6-glucose), and 0.25 g/l of appropriately labeled Celtone Base Powder (Cambridge Isotope Laboratories, Andover, MA) was added. For triple-labeled ^2H,^13C,^15N—SH3, expression began in 100 ml of the above medium grown to an OD600 of 0.4-0.5 and gently centrifuged. Pellets were then resuspended in 500 ml filter-sterilized D20-based ^15N-M9 supplemented with ^2H7-^13C6-glucose (2 g/1) and DCN-Isogro (0.25 g/1) to reach a final OD600 of −0.1. In both cases cells were then grown at 37° C. and induced with 0.5 mM isopropyl β-D-1-thiogalactopyranoside (IPTG) upon reaching OD600-0.8, followed by overnight growth at 27° C. To purify the SH3 domain, cells were harvested by centrifugation, subjected to a single freeze-thaw cycle, and resuspended in lysis buffer (50 mM NaPi pH 8.0, 300 mM NaCl, 1 mM dithiothreitol (DTT), 100 ml per liter of culture) supplemented with 1 tablet EDTA-free protease inhibitor cocktail (Merck) and benzamidine (5 mM). Cells were lysed by French press, followed by addition of benzamidine (final concentration 10 mM) and phenylmethylsulfonyl fluoride (PMSF, 1 mM), and the lysate was clarified by centrifugation. The supernatant was loaded on a HisTrap HP column (GE Healthcare, Chicago, IL, USA) equilibrated with lysis buffer and the protein eluted through a gradient (Buffer B: 50 mM NaPi pH 8.0, 100 mM NaCl, 300 mM imidazole, 1 mM DTT). To the fraction eluting at ˜40% B purified tobacco etch virus (TEV) protease (1:30 mol:mol) was added, and the mixture dialyzed overnight at 4° C. against dialysis buffer (50 mM NaPi at pH 8.0, 100 mM NaCl, 1 mM DTT). The dialysate was brought to a final concentration of ˜5 mM imidazole, filtered, and loaded onto a HisTrap column. The collected flowthrough was dialyzed against 20 mM Tris (pH 7.5), 1 mM DTT for 3 h to reach a final concentration of 10 mM NaCl. […]
Purified SH3 was dialyzed against NMR sample buffer (30 mM NaPi, pH ˜6.5) and concentrated to the desired concentration in an Amicon concentration tube (3 kDa MWCO) (Merck). […] For quantitative titrations, purchased peptides were dissolved in 100-300 μl NMR sample buffer, and samples at varying (SH3:PRR2 1:0-1:6, SH3 concentration constant at 0.1 mM) ratios were prepared. Fittings were performed with 5-6 measured points. […]

MDA-MB-231 cells [3] = experiment: 3D scratch wound assay in Matrigel; type: cell-based, human; conditions: MMP inhibitor, 25 µM
Procedure: The 3D scratch wound assay was performed as described in Meirson et al. Targeting invadopodia-mediated breast cancer metastasis by using ABL kinase inhibitors. Oncotarget 2018; 9: 22158-22183. Briefly, 96 well Image Lock microtiter plates (Essen Bioscience) were coated with 100 μg/ml Matrigel (cat #354234; Corning, New-York, NY, USA). Following overnight incubation at 37° C., MDA-MB-231 cells were plated at a final concentration of 350,000 cells/ml and allowed to adhere for 12-16 h in the presence of Pyk2-PRR or control peptides. Following wounding of the bottom Matrigel-cells layer, a top layer of Matrigel was added to a final concentration of 2 mg/ml and allowed to polymerize for 30 min at 37° C. Pyk2-PRR or control scrambled peptides were then added again in DMEM/10% FBS to a final concentration of 0.1, 1, or 5 μM, with or without the MMP inhibitor GM6001 ([…]). Plates were placed in a 37° C. heated chamber, and images were collected using the IncuCyte® Zoom platform (Essen Bioscience; 20×, NA 0.60, air objective). Phase images were collected every one hour for a total of 12 h using the IncuCyte® acquisition software.

[4] = molecular target: T2, cortactin-SH3 domain (mouse cortactin SH3 domain, GenBank ID U03184; nucleotides 1468-1641) (mouse, UniProt Q60598 490-546, isotopically labeled (15N, 13C and/or 2H) for NMR); experiment: NMR chemical shift titration (1H,15N-HSQC)
T2 construct: domain: SH3 domain; also called purified cortactin-SH3

[5] = molecular target: T2, cortactin-SH3 domain (mouse cortactin …); experiment: NMR chemical shift titration (1H,15N-HSQC), unlabeled peptide into 15N-SH3

T2 sequence (Q60598 490-546 limits assumed): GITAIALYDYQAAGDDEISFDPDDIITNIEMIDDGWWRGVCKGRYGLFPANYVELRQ

loss of affinity (cortactin SH3 domain): 3.5 fold
Molecule: TAFQEPPPKPSRPKARPPP [Y722A, Pyk2-PRR2 708-726 with Y722A substitution]

loss of affinity (cortactin SH3 domain): 27 fold
Molecule: TAFQEPPPKPSR [Δ720-726 deletion mutant, Pyk2-PRR2 truncated to positions 708-719]

Kd [4]: 8 µM
Molecule: HAIYPRHTAFQEPPPKPSRPKYRPPP-NH2 [Tf-tag-Pyk2-PRR2, HAIYPRHTAFQEPPPKPSRPKYRPPP-NH2 (SEQ ID NO: 7 + C-term cap)]

The next lines start with the molecule.

Molecule: EFTGPPQKPPRLGAQS [Pyk2-PRR3, EFTGPPQKPPRLGAQS]
invadopodia formation and maturation (MDA-MB-231 cells [1]): minor effect
2D motility (accumulated and Euclidean distances, velocity) (MDA-MB-231 cells [2]): reduced 2D motility; also recorded: minor effect

Molecule: CC(=O)N[C@@H](C(=O)N[C@H](C)C(=O)N[C@H](Cc1ccccc1)C(=O)N[C@H](CCC(N)=O)C(=O)N[C@@H](CCC(=O)O)C(=O)N1CCC[C@H]1C(=O)N1CCC[C@H]1C(=O)N1CCC[C@H]1C(=O)N[C@@H](CCCCN)C(=O)N1CCC[C@H]1C(=O)N[C@@H](CO)C(=O)N[C@@H](CCCNC(=N)N)C(=O)N1CCC[C@H]1C(=O)N[C@@H](CCCCN)C(=O)N[C@@H](Cc1ccc(O)cc1)C(=O)N[C@H](CCCNC(=N)N)C(=O)N1CCC[C@@H]1C(=O)N1CCC[C@@H]1C(=O)N1CCC[C@@H]1C(N)=O)[C@H](C)O [SEQ ID NO: 9, TAFQEPPPKPSRPKYRPPP]
Kd (cortactin SH3 domain; capped Pyk2-PRR2 derivatives, NMR titration isotherm, unit inferred): 15 ± 2 µM

Molecule: CNC(=O)[C@H](Cc1c[nH]c2ccccc12)NC(=O)[C@@H](CC(=O)NO)CC(C)C [GM6001, reference compound]
ECM invasion (MDA-MB-231 cells [3]): fully inhibited

B1: Pyk2-PRR3 peptide (SEQ ID NO: 2) (peptide)
peptide: EFTGPPQKPPRLGAQS
notes: Unlabeled synthetic peptide as used in the NMR titration
Kd [5]: 650 µM

B2: Pyk2-PRR2-Tf-tag, Ac-TAFQEPPPKPSRPKYRPPPHRPYIAH (SEQ ID NO: 8 + N-term cap) (peptide)
peptide: Ac-TAFQEPPPKPSRPKYRPPPHRPYIAH
notes: Pyk2-PRR2 (human Pyk2 708-726) followed by a C-terminal tag printed as HRPYIAH, the reverse of the Tf tag
Kd [4]: 2 µM
